Results: the nanobody polyreactivity screen of Harvey et al. (2022)

Assay: yeast display, Sf9 membrane polyspecificity reagent, FACS + sequencing; frameworks hold sequencing errors
Summary of the method: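 Using colony PCR, genes from sorted yeast display clones were amplified, then sequenced on MiSeq at 2 × 250 and filtered by CDR length. The clones had been stained with 10% biotinylated, detergent-solubilized Sf9 membrane reagent for 1 hour at 4 °C and sorted by FACS into low and high (top ~1%) gates on anti-HA and streptavidin fluorescence. Polyreactivity labels come from the gate of origin.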

| Sequence | polyreactivity (PSR sort gate) |
| --- | --- |
| QVQLVESGGGFVQAGGSLRLSCAASGRTFSYYAMGCYRQAPGKERELVASISGGGRTNYADSVKGRFTISRDNAKNTVYLQMNSLKAEDTAVYYCAARYEVRHTLYNYWGQGTQVTVSS | high polyreactivity |
| QVQLVESGGGFVQAGGSLRLSCAASGRTFWNYAMGWYRPAPGKERELVAVIRFSDGSTYYADSVKGRFTISRDHAKNTVYLQMNSLKPEDTAVYYCAAKGPRRWGSGFDYWGQGTQVTVSS | low polyreactivity |
| QVQLVESGGGFVQAGGSLRLSCAASGSIFDPYAMGWYIQAPGKERELVAAINWSGDSTYYADSVKGRFTISRDNAKNTVYLQMYSLKPEDTAVYYCAADPTDDTHLYYYWRQGTQVTVSS | low polyreactivity |
| QVQLVESGGGFVQAGGSLRLSCAASGSIFDYYTMGWYRQAPGKERELVATIRSGDSTNYADSVKGRFTISRDNAKNTVYLPMNSLKPEDPAVYYCAADYGYQDDYWGQGTQVTVSS | low polyreactivity |
| QVQLVESGGGFVQAGGSLRLSCAASGSIFYTYVMGWYRQAPGKERELVAAITWSGGSTYYADSVKGRFTISRDNAKNTVYLQMNSLKPEDTAVYYCAAVRGYRSSKYDYWGQGTQVTVSS | high polyreactivity |
| QVQLVESGGGFVQAGGSLRLSCAASGSIIKRNAMGWYRQAPGKERELVASISSGGSTKYADSVKGRFTLSRDNAKNTVYLQMNSLKPEDTAVYYCAKRSSQTRRAYDYWGQGTQVTVSS | low polyreactivity |
| QVQLVESGGGFVQAGGSLRLSCAASGSTFAYYAMGWDRQAPGKERELVAAITRGGRTYYADSVKGRFTISRDNPKNTVYLQMNSQKPDDTAVYYCNARKYTWYSSRFIRFDYWGQGTQVTVSS | high polyreactivity |
| QVQLVESGGGFVQAGGSLRLSCAASGSTLPYYAMGWYRQAHGKERELVADITARGGTYYADSVKGRFTISRDNAKNTVYLQMNSLKPEDTAVYYCAAAYSLWQFYWDQGYDYWGQGTQVTVSS | high polyreactivity |
| QVQLVESGGGFVQAGGSLRLSCAASGVTYGGYAMGWYRQAPGKERELVAAITGSAGNTFYADSVKGRFTISRDNAKHTVYLQMNSLKPEDTAVYYCANTWYPWSRYGYYGRYDSWGLGTQVTVSS | low polyreactivity |
| QVQLVESGGGFVQAGGSLRLSCAASGYIFGIYAMGWYRQAPGKERELVAAISTSGGSTYYADSVKGRFTISRDNAKNTVYLQMNSLKPEDTAVYYCARPTTYGYYYWGQGTQVTVSS | high polyreactivity |
| QVQLVESGGGFVQAGGSLRLSCAAYGRTFGRYAMGWYRQAPGKERELVAAIRSGGSTYYADSVKGRFTISRDNAKNTVYLQMNSLKPEDTAVYYCAADIARHLTVFAYYRLDYWGQGTQVTVSS | low polyreactivity |
| QVQLVESGGGFVQAGGSLRLTCAASALTFQYNAMGWYRQAPGKETELVAAISRSGGRTYYADSVKGRFTISRDNAKNTVYLQMNSLKPEDTAVYYCARRGGVVYSSGYNYLGQGTQVTVSS | high polyreactivity |
| QVQLVESGGGFVQARGSLRLSCAASGSIFWLYAMGWYSQAPGKERELVAAISWSTGGTYYADSVKGRFTISRDNAKNTVYLQMNSQKPEDTAVYYCNKLWVGKFKRYEFGYWGQGTQVTVSS | low polyreactivity |
| QVQLVESGGGIDQAGGSLRLSCAASGSNFYTYAMGWYRQAPGKEREFVAAITRGGARTYYADSVKWRFTISRDNAKNTVYLQMNSLKPEDTAVYYCAKLGKATTQVGSDYWGQGTQVSVSS | low polyreactivity |
| QVQLVESGGGIDQAGGSLRLSCAASGSTFPRYAMGWYRQAPGKERELVAAISRSGGSTYYADSVKWRFTISRDNAKNTVDLQMNCLKPEDTAVYYCAGRYERGSYKYDYWGQGTEVTVSS | high polyreactivity |
| QVQLVESGGGIVHAGGSLRLSCAASGSTFDSYARGWYRQAPGKERELVAAITDSGSSTYYADSVKGRFTISRDNAKNTVYLQMNSLKPEDSAVYYCANYDYHGWSYYRYDYWGQGTQVTVSS | low polyreactivity |
| QVQLVESGGGIVQAGGILRLSSAASGRIFLGYAMGWSRQAPGKERELVASISGPAGSTNYADSVKGRFTISRDNAKNTVYLQMNSLKPEDTAVYYCAAEERYAYRYDYWGQGTQVTVSS | high polyreactivity |
| QVQLVESGGGIVQAGGRLRLRCAASGFTFGRYAMGWYRQEPGKEREFVAAITWSGGGTYYADSVKGRFTISRDNAKNTVYLQMNSLKPEDTAVYYCAADRRAYGGGYLGQGTQVTVSS | high polyreactivity |
| QVQLVESGGGIVQAGGRLRLSCAASGITFRFYAMGWYRQAPGKERELVAVISRGGGTTYYADSVKGRFTISRDNEKNTVYLEMNSLKPEDTEVFYCNAVFAWYRSDEYDYWGQGTLVTVSS | high polyreactivity |
| QVQLVESGGGIVQAGGRLRLSCAASGMIFYFYALGWYRPAPGKERELVAAITSGARTYYADSVKGRFTISRDNAKNTVYLQINSLKPEDTAVYYCAADVKRDRVWGGDYWGQGTQVTVSS | low polyreactivity |
| QVQLVESGGGIVQAGGRLRLSCAASGRTSAVNAMVWYRQAPGKERELVAAITKSGGRTYYADSEKGRFTISRDNAKNTVYLQMNSLKPEDTAVYYCATSLLSRYGMDYWGQGTQVTVSS | high polyreactivity |
| QVQLVESGGGIVQAGGSIRLSCAASGRIFRYYAMGWYRQAPGKERELVATISRSGGSTFYAESVKGRFTISRDNAKNTVYLQMNSLIPEDTAVYYCNARYQTGGYGYWGQGTQVTVSS | high polyreactivity |

| Sequence | polyreactivity (PSR sort gate) |
| --- | --- |
| QVQLVESGGGIVQAGGSLPLSCAASGSTYNSYAMGWYRQAPGKDRELVAGISYIGGRTYYADSVKGRFTISRDNAKNTVYLQMNSLKPEDTAVYYCAAVYWYGRRKYYSWGQGTQVTVSS | high polyreactivity |
| QVQLVESGGGIVQAGGSLPLSSAASGSTFPYNTMGWYIQAPGKERELVAAISQRGGSTYADSVKGRFTISRDNAKNTVYLEMNSLKPEDTAVYYCNKRNVYYSYPFDYDYWGQGTQVTVCS | low polyreactivity |
| QVQLVESGGGIVQAGGSLRLRCAASGSIFRFNAMGWYRQAPGKERDLVAAISSSGSSTYYADSVKGRFTISRDNSKNTVYLQMNSLKPEDTAVYYSAARNSYGNWRYYYWGQGTQVTVSS | high polyreactivity |
| QVQLVESGGGIVQAGGSLRLSCAASGFTCGPYAMGWYRQAPGKERELVATIRSGDSTNYADSVKGRFTISRDNAKNTVYLQMNSLKPEDTAVYYCARDARASARRKRYDYWGQGTQVTVSS | low polyreactivity |
| QVQLVESGGGIVQAGGSLRLSCAASGFTFGAYAMGWSRQAPGKEGELVASISWSGGSTYYADSVKGRFTISRDHAKNTVNLQMNSLKPEDTAVYYCNKDFVYPDDDGLFDYWGQGTQETVSS | low polyreactivity |
| QVQLVESGGGIVQAGGSLRLSCAASGFTFYRYAMGWYRQAPGKERELVAAITWSGGSTYYADSVKGRFTISRDNAKNTVYLQMNSLKPEDTAVYYCAADIYDGGFDYWGQGTQVTVSS | low polyreactivity |
| QVQLVESGGGIVQAGGSLRLSCAASGGTFYYYAMGWYRQAPGKERELVATISYSGASTYYADSVKGRFTISRDNAKNTVYLQMNSLKPEDTAVYYCKARPYNHRYRAWMDYWGQGTQVTVSS | high polyreactivity |
| QVQLVESGGGIVQAGGSLRLSCAASGIIFGYYAMGWYRQAPGKERELVAAISRRGGSTYYADSVKGRFTISRDNATITVYLQMHSLKPEDSAVSYCAAVELRLSTPDMESWVQGTQVTVSS | high polyreactivity |
| QVQLVESGGGIVQAGGSLRLSCAASGIIFKAYAMGWYRKAPGKERELVAAITTGSTTYADSVKGRFTISRDNAKNTVYLQMNSLKPEDTAVYYCNARFDWGWPGYEYDYCGQGTQVTVSS | low polyreactivity |
| QVQLVESGGGIVQAGGSLRLSCAASGIIFSWYAMGWYRQAPGKERELVAAISKGGGSTYYADSVKGRFTISRDNAKNTVYLQMNSLKPEDTAVYYCAAASSYGYGYWGQGTQVTVSS | high polyreactivity |
| QVQLVESGGGIVQAGGSLRLSCAASGITFEYNAIGWYRQAPGKARELVAAISQSSGSTYYADSVKGRFTISRDYAKNTVYLQMNSLKPEDTAVYYCNADTIIYEGGYWGQGTQVTVSS | low polyreactivity |
| QVQLVESGGGIVQAGGSLRLSCAASGLISRVYAMGWSRQAPGKEWELVAAISSGGSTNYADSVKGRFTISRDNAKNTVYLQMNSLKPEETAGYYCAARGRRTGGHYNYWGQGTQETVSS | low polyreactivity |
| QVQLVESGGGIVQAGGSLRLSCAASGNTFGYYAIGWYRQAPGKERELVAAINFGGDTSYADSVKGRFTISRDNAKNTVYLQMNSLKPEDTAVYYCNRVPSWRIDYDYWGQGTQVTVSS | low polyreactivity |
| QVQLVESGGGIVQAGGSLRLSCAASGNTFYTYAMGWYRQAPGKERELVAAITSGGRTYADSVKGRFTISRDNATNTVYLQMNSLKPEDTAVYYCAADFPGFYYVYPGDYWGQGTQVTVSS | low polyreactivity |
| QVQLVESGGGIVQAGGSLRLSCAASGRIFGYYVMGWSRQAPGKESELVAAINYDGGSTYYADSVKGRFTISRDNAKNTVYLQMISLKPVDTAVYYWAAAIGNSEYGWRYDYWGQGTQVTVSS | low polyreactivity |
| QVQLVESGGGIVQAGGSLRLSCAASGRIFIWYDMGWYRQAPGKERELVAAITQSDDITYYADSVKGRFTISLDNAKNTVYLQMNSLKPEDTAVYYCAVDKPYPYRIIIWYEYDYWGQGTQVSVSS | low polyreactivity |
| QVQLVESGGGIVQAGGSLRLSCAASGRIFPYYDMGWYRQAPGKERELVAAITSSGSTFYADSVKGRFTISRDNAKNTVYLQMNSLKPEDTAVYYCNTRDIRVRPYDYWGQGTQVTVSS | low polyreactivity |
| QVQLVESGGGIVQAGGSLRLSCAASGRIFSGNAMGWYRQAPGKERELVATISRRGGSTYYADSVKGRFTISRDNAKNTVYLLMNSLKPEDTAVYYCAVDPYAWTKWSTYNYWGQGTQVTVSS | high polyreactivity |
| QVQLVESGGGIVQAGGSLRLSCAASGRIFVRNAMVWYRQAPGKERELVAAISTNGGSTRYADSVKGRFTISRDNAKNTVYLQMNSLKPEDTAVYYCNAYYSHSPRYLKYDYWGLGTQVTVSS | high polyreactivity |
| QVQLVESGGGIVQAGGSLRLSCAASGRIFYGYTMGWYRQAPGKERELVASIDYSTGRTYYADSVKGRFTISRDNAKNTVYLLMNSLKPEDTAVYYCNADPNYSFLRYDYWGQGTQVTVSS | high polyreactivity |
| QVQLVESGGGIVQAGGSLRLSCAASGRIFYYYAMGWYRQAPGKESELVAAISRSGGRTYYADSVKGRFTISRDNAKNTVYLHMNSLKPEDTAVYYCNVVRQGGTLGYDYWGQGTQVTVSS | high polyreactivity |
